Experimental data as given in US9376684.

Experiments:
TFPI1-276-CD4 [1] = target: TFPI1-276-CD4 (UniProt P10646); assay: flow cytometry, DAP.3 transfectants incubated with increasing FXa
TFPI1-183-CD4 [2] = target: TFPI1-183-CD4 (UniProt P10646); assay: as above
[3] = test system: synthetic C-terminal hirudin dodecapeptide analog comprising hirudin residues 53-64, with sulfato-Tyr64 (American Diagnostica)
[4] = test system: native full-length hirudin (Biopharm)
TFPI1-276-CD4 [5] = target: TFPI1-276-CD4 (UniProt P10646)
TFPI1-183-CD4 [6] = target: TFPI1-183-CD4 (UniProt P10646)

Substance: FXa (from UniProt P00742 41-488) (enzyme)
- FXa concentration at which significant binding was detected (TFPI1-276-CD4 [1]): 0.02 nM
- FXa concentration at which significant binding was detected (TFPI1-183-CD4 [2]): 0.02 nM

Substance: thrombin
- thrombin-dependent catalytic activity (cleavage of chromogenic substrate S-2238) [3]: the dodecapeptide did not influence thrombin-dependent catalytic activity as measured by cleavage of S-2238
- thrombin-dependent catalytic activity (cleavage of chromogenic substrate S-2238) [4]: no chromogenic conversion was observed with thrombin incubated with PPACK-HCl or hirudin as compared to thrombin incubated without inhibitor

Substance: FXa
- proteolytic activity of FXa (chromogenic substrate S-2765; time required to reach OD405=0.1) (TFPI1-276-CD4 [5]): FXa activity was inhibited by expressed TFPI-CD4 in a dose dependent manner with the greatest inhibition noted when low concentrations of FXa (0.16 nM) were added
- proteolytic activity of FXa (chromogenic substrate S-2765; time required to reach OD405=0.1) (TFPI1-183-CD4 [6]): FXa activity was inhibited by expressed TFPI-CD4 in a dose dependent manner with the greatest inhibition noted when low concentrations of FXa (0.16 nM) were added
